Test results reported in patent US20190367620A1.
Changes are numbered by the printed parent chain. Values belong to the binder of their own block, whether it stands above or below them.

Legend:
[1] = target: human FGFR1 (His-tagged FGFR1b-IIIb or FGFR1b-IIIc; isoform not told at that place) (human) (UniProt P11362); test: ELISA on coated human FGFR1b (IIIb or IIIc not told)
[2] = target: human FGFR1 (His-tagged FGFR1b-IIIb or FGFR1b-IIIc; isoform not told at that place) (human) (UniProt P11362); test: ELISA on coated human FGFR1b (IIIb or IIIc not told), IgG1 format
[3] = target: T1, FGFR1 D2 point mutant K60A (human), P11362; test: SPR as in Example 1.8; conditions: remark: other sources report otherwise
T1 chain: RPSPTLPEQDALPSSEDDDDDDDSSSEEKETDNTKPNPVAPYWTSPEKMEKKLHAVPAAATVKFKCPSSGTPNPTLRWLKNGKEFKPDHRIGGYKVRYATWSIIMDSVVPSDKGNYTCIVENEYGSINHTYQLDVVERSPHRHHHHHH

[4] = target: T2, FGFR1 D2 point mutant K63A (human), P11362; test: SPR as in Example 1.8; conditions: remark: other sources report otherwise
T2 chain: T1 chain with A60K, K63A

[5] = target: T3, FGFR1 D2 point mutant K95A (human), P11362; test: SPR as in Example 1.8; conditions: remark: other sources report otherwise
T3 chain: T1 chain with A60K, K95A

[6] = target: T4, FGFR1 D2 point mutant T61A (human), P11362; test: SPR as in Example 1.8; conditions: remark: other sources report otherwise
T4 chain: T1 chain with A60K, T61A

[7] = target: T1, FGFR1 D2 point mutant K60A (human), …; test: SPR; free energy change relative to wild-type D2; conditions: remark: other sources report otherwise
[8] = target: T2, FGFR1 D2 point mutant K63A (human), …; test: SPR; free energy change relative to wild-type D2; conditions: remark: other sources report otherwise
[9] = target: T3, FGFR1 D2 point mutant K95A (human), …; test: SPR; free energy change relative to wild-type D2; conditions: remark: other sources report otherwise
[10] = target: T4, FGFR1 D2 point mutant T61A (human), …; test: SPR; free energy change relative to wild-type D2; conditions: remark: other sources report otherwise
huFGFR1a-IIIc (human) = huFGFR1a-IIIc (human) (UniProt P11362); test: SPR (Biacore 4000), antibody captured, His-tagged FGFR1 injected; no unit in the table, nM inferred from paragraph 90
Chain of huFGFR1a-IIIc (human) (P11362 22-376): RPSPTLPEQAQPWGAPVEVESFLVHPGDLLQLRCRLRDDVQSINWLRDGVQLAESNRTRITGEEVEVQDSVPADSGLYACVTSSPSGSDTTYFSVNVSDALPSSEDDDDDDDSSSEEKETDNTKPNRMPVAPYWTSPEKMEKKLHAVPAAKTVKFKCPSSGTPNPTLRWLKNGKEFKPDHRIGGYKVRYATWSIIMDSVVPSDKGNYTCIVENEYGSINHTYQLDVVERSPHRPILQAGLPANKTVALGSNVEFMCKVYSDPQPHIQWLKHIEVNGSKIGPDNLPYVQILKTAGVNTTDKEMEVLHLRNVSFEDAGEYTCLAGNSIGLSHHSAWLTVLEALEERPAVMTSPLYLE

EC50 [1]: 0.015 nM
B1: mAb #D01 IgG1 (antibody, V domains shown)
VH: QVQLQESGPGLVKPSGTLSLTCAVSGGSISSNNWWSWVRQPPGKGLEWIGEIYHSGSTSYNPSLKSRVTISVDKSKNQFSLKLSSVTAADTAVYYCARATDWFDHWGQGTLVTVSS
VL: SYVLTQPPSVSVAPGQTARITCGGNNIGSESVHWYQQKPGQAPVLVVYDDSDRPSGIPERFSGSNSGNTATLTISRVEAGDEADYYCQVWDSTSDHRVFGGGTKLTVLG

EC50 [2]: 0.008 nM
B2: #A08 IgG1 (standard IgG1 built from the #A08 lead heavy and light chains) (antibody, V domains shown)
VH: B1 VH with Q1E, A99G, H105P
VL: B1 VL

Kd [3]: 13.4 nM | Kd [4]: 13.9 nM | Kd [5]: 5.86 nM | Kd [6]: 5.89 nM | ΔΔGmut [7]: 2.51 kcal/mol | ΔΔGmut [8]: 2.53 kcal/mol | ΔΔGmut [9]: 2.02 kcal/mol | ΔΔGmut [10]: 2.02 kcal/mol | Kd (huFGFR1a-IIIc (human)): 0.7 nM
B3: mAb #A08 (antibody, V domains shown)
VH: B1 VH with Q1E, S84N, A99G, H105P
VL: QAVLTQPPSVSVAPGQTARITCGGNNIGSESVHWYQQKPGQAPVLVVYDDSDRPSGIPERFSGSNSGNTATLTISRVEAGDEADYYCQVWDSTSDHRVFGGGTKLTVL
